From paper PMC8708908

Biological target: EcDsbB (Escherichia coli DsbB) (E. coli (endogenous in E. coli JCB817)) (UniProt P0A6M2)
Chain of UniProt P0A6M2 (P0A6M2 whole entry): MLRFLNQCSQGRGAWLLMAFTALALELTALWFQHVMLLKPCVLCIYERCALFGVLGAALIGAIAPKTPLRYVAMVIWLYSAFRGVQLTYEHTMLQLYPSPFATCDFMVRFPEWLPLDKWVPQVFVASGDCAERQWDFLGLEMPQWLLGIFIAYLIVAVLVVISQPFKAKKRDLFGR

Which redox state of CjDsbA2 (AMS labelling, Western blot) in E. coli JCB817 (ΔdsbA, with EcDsbB); in JCB818 (ΔdsbAΔdsbB) mostly in the reduced form (87%) (% oxidized form) does the source give for “CjDsbA2 made in E. coli with the E. coli pelB signal sequence (ss'pelB-cjdsbA2 in pMPM-A6, pUWM1523) (enzyme)” here?
The redox state of CjDsbA2 (AMS labelling, Western blot) in E. coli JCB817 (ΔdsbA, with EcDsbB); in JCB818 (ΔdsbAΔdsbB) mostly in the reduced form (87%) (% oxidized form) was 33.
